Test results published in patent US20250145694A1 (GUANGDONG FEIPENG BIOLOGICAL, published 2025).
Changes are numbered by the printed parent chain.

B1: Anti-cTnI 8C4 recombinant antibody (WT) (antibody, mouse IgG1, kappa)
heavy: EVQMVESGGGLLKPGGSLKLSCAASGFTYSNYAMSWVRQTPEKRLEWVATISTGGSYSYYPDSVKGRFTISRDNAKNTLYLQMLSLRSEDTAMYYCARKDNYYGSTFMDYWGQGSSVTVSSAKTTPPSVYPLAPGSAAQTNSMVTLGCLVKGYFPEPVTVTWNSGSLSSGVHTFPAVLQSDLYTLSSSVTVPSSTWPSQTVTCNVAHPASSTKVDKKIVPRDCGCKPCICTVPEVSSVFIFPPKPKDVLTITLTPKVTCVVVDISKDDPEVQFSWFVDDVEVHTAQTKPREEQFNSTFRSVSELPIMHQDWLNGKEFKCRVNSAAFPAPIEKTISKTKGRPKAPQVYTIPPPKEQMAKDKVSLTCMITNFFPEDITVEWQWNGQPAENYKNTQPIMDTDGSYFVYSKLNVQKSNWEAGNTFTCSVLHEGLHNHHTEKSLSHSPG
light: DIQMTQTSSSLSASLGDRVTISCRASQDITQYLNWYQQKPDGTIKLLIYYSSRIHSGVSSRFSGSGSGTDYSLTISNLEQEDIATYFCQQGNTIPLTFDTGTKLELKRADAAPTVSIFPPSSEQLTSGGASVVCFLNNFYPKDINVKWKIDGSERQNGVLNSWTDQDSKDSTYSMSSTLTLTKDEYERHNSYTCEATHKTSTSPIVKSFNRNEC
notes: Mouse antibody expressed in CHO cells; also called CTNI 8C4 antibody
B2: Mutation 1 (antibody)
heavy: B1 heavy with T53S, K99R
light: B1 light with Q31N, S51T
B3: Mutation 2 (antibody)
heavy: B1 heavy with K99R
light: B1 light with S51T
notes: assembled FR/CDR/constant
B4: Mutation 4 (antibody)
heavy: B1 heavy with T53S
light: B1 light
notes: light chain unchanged from WT; heavy chain assembled FR/CDR/constant
B5: Mutation 3 (antibody)
heavy: B1 heavy with T53S
light: B1 light with Q31N
notes: assembled FR/CDR/constant
B6: Mutation 5 (antibody)
heavy: B1 heavy with K99R
light: B1 light
notes: as for B4

molecular target: T1, CTNI quality control recombinant antigen (human, UniProt P19429 1-210, limits assumed); assay: BLI, antibody on AMC sensor, cTnI in solution
T1 construct: Recombinant antigen produced by the applicant; also called CTNI quality control recombinant protein (antigen produced by the company); cardiac troponin I
Procedure: With an AMC sensor, the purified antibody was diluted to 10 μg/ml with PBST, and CTNI quality control recombinant protein (antigen produced by the company) was gradient diluted with PBST to 769.2 nmol/ml, 384.6 nmol/ml, 192.3 nmol/ml, 96.2 nmol/ml, 48.1 nmol/ml, 24 nmol/ml, 12 nmol/ml, and 0 nmol/ml.

T1 sequence (P19429 whole entry): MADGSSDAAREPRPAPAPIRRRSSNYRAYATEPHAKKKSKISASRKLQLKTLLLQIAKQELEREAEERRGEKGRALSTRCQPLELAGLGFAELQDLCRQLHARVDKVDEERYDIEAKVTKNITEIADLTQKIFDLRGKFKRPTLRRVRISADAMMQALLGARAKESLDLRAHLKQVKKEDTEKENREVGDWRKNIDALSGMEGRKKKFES

Binder	Kd	koff	kon
B1	21.6 nM	0.000169 s⁻¹	7830 M⁻¹ s⁻¹
B2	7.04 nM	0.000583 s⁻¹	82800 M⁻¹ s⁻¹

molecular target: T1, CTNI quality control recombinant antigen; assay: indirect ELISA, cTnI coated 1 ug/ml, antibody 0.051 ng/ml
Procedure: (§1) CTNI quality control recombinant antigen was diluted to 1 μg/ml with a coating solution and coated a microplate, 100 μL per well, overnight at 4° C.; on the next day, the microplate was washed with a washing solution twice and patted dry; a blocking solution (20% of BSA+80% of PBS) was added, 120 μL per well, 37° C., 1 h, patted dry; the diluted cTnI monoclonal antibodies were added, 100 μL/well, 37° C., 30 min; the microplate was washed with a washing solution 5 times, patted dry; goat anti-mouse IgG-HRP, 100 μL per well, 37° C., 30 min; the microplate was washed with a washing solution 5 times, patted dry; a color-developing solution A (50 μL/well) was added, a color-developing solution B (50 μL/well) was added, 10 min; a stop solution was added, 50 μL/well; OD values were read on microplate reader at 450 nm (reference, 630 nm).

Binder	OD450 (reference 630 nm)
B1	0.04 OD
B3	0.058 OD
B4	0.061 OD
B5	0.049 OD
B2	0.088 OD
B6	0.054 OD

molecular target: T1, CTNI quality control recombinant antigen; assay: indirect ELISA, cTnI coated 1 ug/ml, antibody 0.457 ng/ml
Procedure: as §1

Binder	OD450 (reference 630 nm)
B1	0.086 OD
B3	0.248 OD
B4	0.098 OD
B5	0.172 OD
B2	0.307 OD
B6	0.098 OD

molecular target: T1, CTNI quality control recombinant antigen; assay: indirect ELISA, cTnI coated 1 ug/ml, antibody 12.346 ng/ml
Procedure: as §1

Binder	OD450 (reference 630 nm)
B1	1.18 OD
B3	1.95 OD
B4	1.21 OD
B5	1.78 OD
B2	2.02 OD
B6	1.32 OD

molecular target: T1, CTNI quality control recombinant antigen; assay: indirect ELISA, cTnI coated 1 ug/ml, antibody 4.115 ng/ml
Procedure: as §1

Binder	OD450 (reference 630 nm)
B1	0.435 OD
B3	1.44 OD
B4	0.456 OD
B5	1.04 OD
B2	1.6 OD
B6	0.569 OD

molecular target: T1, CTNI quality control recombinant antigen; assay: indirect ELISA, cTnI coated 1 ug/ml, antibody 1.372 ng/ml
Procedure: as §1

Binder	OD450 (reference 630 nm)
B1	0.194 OD
B3	0.728 OD
B4	0.208 OD
B5	0.479 OD
B2	0.785 OD
B6	0.214 OD

molecular target: T1, CTNI quality control recombinant antigen; assay: indirect ELISA, cTnI coated 1 ug/ml, antibody 0 ng/ml (blank)
Procedure: as §1

Binder	OD450 (reference 630 nm)
B1	0.031 OD
B3	0 OD
B4	0.029 OD
B5	0.011 OD
B2	0.039 OD
B6	0.03 OD

molecular target: T1, CTNI quality control recombinant antigen; assay: indirect ELISA, cTnI coated 1 ug/ml, antibody 0.152 ng/ml
Procedure: as §1

Binder	OD450 (reference 630 nm)
B1	0.053 OD
B3	0.072 OD
B4	0.069 OD
B5	0.068 OD
B2	0.129 OD
B6	0.072 OD
